This is an account of results in patent publication US20020098523A1.

For assay [1], the target named is Human eotaxin (human) (UniProt P51671). Nature of the assay: saturation binding of [125I]eotaxin to coated CAT-212 on a Flash Plate, Scatchard plot.
For assay [2] the target is unchanged. Nature of the assay: not stated (summary sentence in the introduction).
Assay [3] has the same target. The experiment in a line: cell-based or functional assay.
For assay [4] the target is unchanged. The experiment in a line: Flash Plate scintillation competition: unlabelled CAT-212 against coated CAT-212 for [125I]eotaxin; mean of 4 estimates.

Sequence of Human eotaxin (human) (P51671 24-97 limits assumed): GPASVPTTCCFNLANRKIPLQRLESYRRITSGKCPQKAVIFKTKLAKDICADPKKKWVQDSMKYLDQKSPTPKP

B1: CAT-212 (scFv, part only; not given: scFv linker and myc/His tag, V domains shown, not shown: another chain or arm of the molecule; small tags and cut ends)
VH: QVQLVQSGGGVVQPGRSLRLSCAASGFTFSSYGMHWVRQAPGKGLEWVAVISYDGSIKHYADSVKGRFTISRDNSKNTLYLQMNSLRTDDTAVYYCAGDTDYGDIDPWGQGTMVTVSS
VL: DIQMTQSPSSVSASVGDRVTITCRASQDISSWLAWYQQKPGKAPKLLIYAASSLQSGVPSRFSGSGSGTDFTLTISSLQPEDFATYYCQQASSFPSITFGQGTRLEIK
The molecule B1 had a Kd in the assay with Human eotaxin (human) [1] of 0.146 nM. Further, the Kd with Human eotaxin (human) [2] came out at 0.015 nM. In the assay with Human eotaxin (human) [3], this molecule had an IC50, inhibition of eotaxin-induced Ca2+ flux in CCR3 cells (FLIPR, area under the curve) of 5 nM; an IC50, inhibition of eotaxin-mediated chemotaxis of CCR3-transfected L1.2 cells of 0.65 nM; an improvement in chemotaxis neutralisation potency over scFv 3G3 of 1000 fold. Also, in the assay with Human eotaxin (human) [4], the IC50 is 0.0425 nM.
